The results in this text go back to patent US20240159758A1 (OPKO DIAGNOSTICS, published 2024).

The target in experiment [1] is T1, Free prostate specific antigen (fPSA) (Homo sapiens (Human), UniProt P07288 25-261).
T1 construct: also called Free PSA
The experiment in a line: sandwich (noncompetitive) DELFIA immunoassay, capture probe. The protocol:
(§1) The concentrations of tPSA and fPSA are determined with commercial assays approved for use in human diagnostics by the FDA (Roche™ Cobas® instrument and Elecsys® assays). The concentrations of iPSA and hK2 are determined using a test developed to run on the PerkinElmer® AutoDELFIA® instrument.
(§2) The presence of iPSA and hK2 are detected by a sandwich (noncompetitive) immunoassay. The iPSA assay employs two distinct mouse monoclonal antibody products. The capture probe is a biotinylated, recombinant His₆-Cys-tagged Fab fragment of the monoclonal antibody 5A10 with specificity for fPSA (of which iPSA is a component). The tracer is a Europium-labelled monoclonal antibody 4D4, with specificity to iPSA and complexed PSA (PSA-ACT). In combination, the reagents are specific for iPSA. The hK2 assay employs five distinct mouse monoclonal antibody products. The capture probe is a biotinylated, F(ab)₂ fragment of 6H10 monoclonal antibody with specificity for hK2 and tPSA. […]
(§3) The signals obtained from the detection of iPSA and hK2 in the immunoassays are then compared to the signals obtained from the detection of a set of standards (e.g. the calibrator solutions) using the same iPSA and hK2 antibodies. […] The reporting range is defined by the limit of quantification (LoQ) at the low end and the highest calibrator at the high end. For the iPSA and hK2 assays, the LoQ was determined using CLSI EP-17A.

Experiment [2] addresses T2, Intact prostate specific antigen (iPSA) (Homo sapiens (Human), UniProt P07288 25-261).
T2 construct: also called Intact PSA
The experiment is described as above. The protocol: as §1, §2, §3

T1 sequence (P07288 25-261 limits assumed): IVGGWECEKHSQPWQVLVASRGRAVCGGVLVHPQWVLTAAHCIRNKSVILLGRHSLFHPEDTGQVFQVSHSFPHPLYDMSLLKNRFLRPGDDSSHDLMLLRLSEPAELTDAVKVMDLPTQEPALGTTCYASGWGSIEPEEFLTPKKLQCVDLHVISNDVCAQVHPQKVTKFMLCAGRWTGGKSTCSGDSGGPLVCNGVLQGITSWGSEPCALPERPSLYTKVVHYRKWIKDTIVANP
T2 sequence (P07288 25-261 limits assumed): as above

B1: biotinylated, recombinant His6-Cys-tagged Fab fragment of the monoclonal antibody 5A10 (Fab, V domains shown)
VH: EVQLVESGPGILQPSQTLSLTCSFSGFSLSTTGMGVSWIRQPSGKGLEWLAHLYWDEDKRYNPSLKSRLTISEDSSRNQVFLKITSVGPADSATYYCARKGYYGYFDYWGQGTALTVSS
VL: DIVMTQSQKFMSTSVGDRVSVTCKASQNVNTDVAWYQQKPGQSPKALIFSTSYRSSGVPDRFTGSGSGTDFTLTITNVQSEDLAEYFCQQYSNYPLTFGAGTKVDLN
modifications: biotinylated (site not stated)
notes: Mouse monoclonal origin; also called Fab 5A10; 5A10 Fab
For the molecule B1, the binding result in experiment [1] and in experiment [2] was “binds” in each case.
